Assay [1] has as its target T1, mouse PD-1 protein (SINO Biological Inc., Cat#50124-M08H) (mouse, UniProt Q02242 25-167).
T1 sequence (looked up): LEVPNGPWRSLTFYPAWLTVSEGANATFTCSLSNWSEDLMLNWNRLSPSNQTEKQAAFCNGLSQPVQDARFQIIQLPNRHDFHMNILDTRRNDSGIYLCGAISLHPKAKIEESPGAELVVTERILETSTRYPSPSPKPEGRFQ
Description: ELISA, mouse PD-1 coated at 25 ng/well.

Assay [2] addresses T2, Human ICOS (Acrobiosystems, Cat# ICS-H5250) (human, UniProt Q9Y6W8 21-140, limits assumed).
T2 sequence (looked up): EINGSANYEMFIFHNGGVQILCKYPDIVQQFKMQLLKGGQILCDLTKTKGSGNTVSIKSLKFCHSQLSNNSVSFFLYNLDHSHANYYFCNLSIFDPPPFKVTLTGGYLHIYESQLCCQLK
Description: ELISA, human ICOS coated at 25 ng/well. For orientation: ELISA stands for enzyme-linked immunosorbent assay.

Assay [3] deals with T3, human BTLA (Acrobiosystems, Cat# BTA-H52E0) (human, UniProt Q7Z6A9 31-150, limits assumed).
T3 sequence (looked up): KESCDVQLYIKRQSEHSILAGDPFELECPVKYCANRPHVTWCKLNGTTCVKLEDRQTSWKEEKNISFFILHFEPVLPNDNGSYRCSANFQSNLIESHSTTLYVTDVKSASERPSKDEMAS
Briefly: ELISA, human BTLA coated at 25 ng/well.

Assay [4] has as its target T4, human CTLA-4 (Acrobiosystems, Cat# CT4-H5229) (human, UniProt P16410 36-161).
T4 sequence (looked up): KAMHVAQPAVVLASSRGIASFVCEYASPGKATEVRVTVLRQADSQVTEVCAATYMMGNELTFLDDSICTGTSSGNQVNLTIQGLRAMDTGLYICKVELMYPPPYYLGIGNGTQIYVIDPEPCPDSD
Description: ELISA, human CTLA-4 coated at 25 ng/well.

Assay [5] deals with T5, cynomolgus PD-1 expressed on stimulated cynomolgus PBMCs (cynomolgus monkey, UniProt B0LAJ3 25-288).
T5 construct: also called monkey PD-1; PD-1 expressed on cynomolgus monkey PBMCs
T5 sequence (B0LAJ3 entry or part of it limits assumed): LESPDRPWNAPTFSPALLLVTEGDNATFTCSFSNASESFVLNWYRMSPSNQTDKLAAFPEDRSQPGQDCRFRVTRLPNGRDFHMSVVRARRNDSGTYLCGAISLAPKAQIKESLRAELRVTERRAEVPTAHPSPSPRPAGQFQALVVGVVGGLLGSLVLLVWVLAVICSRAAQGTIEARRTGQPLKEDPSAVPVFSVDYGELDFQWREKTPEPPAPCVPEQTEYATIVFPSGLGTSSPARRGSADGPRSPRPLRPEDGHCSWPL
Briefly: flow cytometry on cynomolgus PBMCs after SEB stimulation, MFI. In general terms: A flow cytometer gives signals particle by particle.

Assay [6] addresses Human FcγRI (Acrobiosystems, Cat# FCA-H52H2) (human, UniProt P12314 16-288). Briefly: ELISA, human FcγRI coated, detection with anti-human F(ab')2-HRP.
For assay [7], the target named is T6, human PD-1 of SEQ ID NO.: 66 stably expressed on transfected cells (CHO-K1-PD-1 cells; Jurkat-NFAT-PD1 cells) (human, UniProt Q15116 25-288).
T6 construct: also called cell surface PD-1; PD-1 expressed on CHO-K1-PD-1 cells
T6 sequence (Q15116 25-288 limits assumed): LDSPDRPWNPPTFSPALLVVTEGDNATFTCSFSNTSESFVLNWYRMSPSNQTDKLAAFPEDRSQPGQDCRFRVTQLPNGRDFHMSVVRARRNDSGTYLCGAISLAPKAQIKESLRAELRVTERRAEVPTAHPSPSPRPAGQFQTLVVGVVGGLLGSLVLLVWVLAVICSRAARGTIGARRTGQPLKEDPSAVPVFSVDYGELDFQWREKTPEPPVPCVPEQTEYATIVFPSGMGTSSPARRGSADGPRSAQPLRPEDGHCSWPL
Briefly: flow cytometry on CHO-K1 cells stably expressing human PD-1, MFI.

Assay [8] addresses T7, Human PD-1 protein (SINO Biological Inc., Cat#10377-H08H-100) (human, UniProt Q15116 25-167).
T7 construct: Bought protein
Description: ELISA, human PD-1 coated at 25 ng/well, detection with anti-human F(ab')2-HRP.

Assay [9] deals with T8, Human PD-1 (prepared in Leadsbiolabs, amino acid sequence of NP_005009.2 set forth in SEQ ID NO.: 66) (human, UniProt Q15116 25-170, limits assumed). Briefly: blocking ELISA, human PD-1 coated, blocked ligand human PD-L1-mouse Fc-tag.
T8 sequence (Q15116 25-170 limits assumed): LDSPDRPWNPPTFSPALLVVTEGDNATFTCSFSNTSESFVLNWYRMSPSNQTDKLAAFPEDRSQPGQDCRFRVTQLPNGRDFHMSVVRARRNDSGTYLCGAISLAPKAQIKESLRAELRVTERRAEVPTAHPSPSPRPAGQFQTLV
The target in assay [10] is T8, Human PD-1 (prepared in Leadsbiolabs, …). Described as above. This is another data set of the same source.
For assay [11] the target is unchanged. The assay is described as above. The source holds these as a separate data set.
Assay [12] has the same target. The description is as above. The source holds these as a separate data set.
The target of assay [13] is T7, Human PD-1 protein (SINO Biological …). Description: ELISA, human PD-1 coated at 25 ng/well, detection with anti-human F(ab')2-HRP. This is another data set of the same source.
Assay [14] shares this target. The description is as above. This is another data set of the same source.
For assay [15] the target is unchanged. The description is as above. This is another data set of the same source.
Assay [16] concerns the target T8, Human PD-1 (prepared in Leadsbiolabs, …). Description: blocking ELISA, human PD-1 coated, blocked ligand human PD-L1-mouse Fc-tag; x axis printed as log values -1 to 2.
Assay [17] deals with T7, Human PD-1 protein (SINO Biological …). Briefly: ELISA, human PD-1 coated at 25 ng/well.
Assay [18] has as its target T9, cynomolgus PD-1-his protein (Acrobiosystems, Cat# PD1-05223) (cynomolgus monkey, UniProt B0LAJ3 25-170).
T9 construct: also called cynoPD-1-his; cynomolgus PD-1 protein
Description: ELISA, cynomolgus PD-1 coated at 25 ng/well.

Assay [19] addresses T8, Human PD-1 (prepared in Leadsbiolabs, …). Briefly: blocking ELISA, human PD-1 coated, blocked ligand human PD-L1-mouse Fc-tag; fit value printed in the table although the control's curve does not fall (see non_binding).

Residue numbers refer to the chain shown, from its start. Read-outs that look alike come from different tables or passages of the source.

In patent US20190352402A1 (NANJING LEADS BIOLABS, published 2019) one finds binding result, EC50 and IC50 data, which are given here for eleven molecules.

By EC50 is commonly meant the concentration that produces a half-maximal response. The low end stands for an effect from little substance, the high end for a need for much substance. One may read the IC50 as the midpoint of a concentration-inhibition curve. A low value points to greater potency in that assay.

T7 sequence (Q15116 25-167 limits assumed): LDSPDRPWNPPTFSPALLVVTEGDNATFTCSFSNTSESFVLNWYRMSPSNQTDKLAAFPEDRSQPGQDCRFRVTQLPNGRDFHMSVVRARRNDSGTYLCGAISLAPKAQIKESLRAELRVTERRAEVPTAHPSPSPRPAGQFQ
Human FcγRI (Acrobiosystems, Cat# FCA-H52H2), sequence (P12314 16-288 limits assumed): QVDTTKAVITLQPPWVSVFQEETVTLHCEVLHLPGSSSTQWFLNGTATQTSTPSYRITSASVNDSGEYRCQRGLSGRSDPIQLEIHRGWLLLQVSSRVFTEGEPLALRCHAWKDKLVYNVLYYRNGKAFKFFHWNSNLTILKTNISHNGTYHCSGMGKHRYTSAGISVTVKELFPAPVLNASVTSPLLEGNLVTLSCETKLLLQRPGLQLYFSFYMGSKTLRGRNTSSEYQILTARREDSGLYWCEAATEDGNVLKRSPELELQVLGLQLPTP
T9 sequence (B0LAJ3 entry or part of it limits assumed): as the sequence (Q15116 25-170 limits assumed) above, with D2E, P10A, V19L, T35A, Q75R, T144A counted along it

B1: Nivolumab analog (antibody, human IgG4 S228P, kappa, V domains shown)
VH: QVQLVESGGGVVQPGRSLRLDCKASGITFSNSGMHWVRQAPGKGLEWVAVIWYDGSKRYYADSVKGRFTISRDNSKNTLFLQMNSLRAEDTAVYYCATNDDYWGQGTLVTVSS
VL: EIVLTQSPATLSLSPGERATLSCRASQSVSSYLAWYQQKPGQAPRLLIYDASNRATGIPARFSGSGSGTDFTLTISSLEPEDFAVYYCQQSSNWPRTFGQGTKVEIKR
notes: also called positive control
Turning to B1, the binding result in [1], in [2], in assay [3] and in assay [4] was “no binding (tested: about 2 nM)” each time. This molecule also returned an EC50 in [5] of 0.692 nM.

B2: Rituximab analog (antibody, human IgG1, kappa)
heavy: not shown
light: QIVLSQSPAILSASPGEKVTMTCRASSSVSYIHWFQQKPGSSPKPWIYATSNLASGVPVRFSGSGSGTSYSLTISRVEAEDAATYYCQQWTSNPPTFGGGTKLEIKRTVAAPSVFIFPPSDEQLKSGTASVVCLLNNFYPREAKVQWKVDNALQSGNSQESVTEQDSKDSTYSLSSTLTLSKADYEKHKVYACEVTHQGLSSPVTKSFNRGEC
notes: Wild type IgG1 heavy chain constant region; also called positive control of the FcγRI ELISA
Take B2: in assay [6], the binding result is reported as “binds”.

B3: anti-PD-1 antibody 21F12 (mutant IgG1 constant region of SEQ ID NO: 18) (antibody, V domains shown)
VH: QMQLVQSGAEVKKPGASVKLSCKASGYIFTSYYIHWVRQAPGQGLEWVGVINPSGGSTTYAQKFQGRVTMTRDTSISTAYMELSRLRSDDTVVYYCARGSYSSGWDYYYYYGMDVWGKGTLVTVSS
VL: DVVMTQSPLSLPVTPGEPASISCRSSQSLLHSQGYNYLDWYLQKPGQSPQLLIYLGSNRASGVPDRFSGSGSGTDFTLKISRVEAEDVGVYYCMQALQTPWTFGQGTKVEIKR
notes: Full length IgG expressed in CHO-S cells
B3: the results for the 50% effective concentration (EC50) in assay [7] and in [8] were 1.06 nM and 0.0447 nM, respectively. The half-inhibitory concentration (IC50) in assay [9] stood at 0.834 nM; in [10], 0.913 nM; in assay [11], 0.716 nM; in [12] it was 0.684 nM.

B4: anti-PD-1 antibody 21F12-1E10 (mutant IgG1 constant region of SEQ ID NO: 18) (antibody, V domains shown)
VH: B3 VH with I28P
VL: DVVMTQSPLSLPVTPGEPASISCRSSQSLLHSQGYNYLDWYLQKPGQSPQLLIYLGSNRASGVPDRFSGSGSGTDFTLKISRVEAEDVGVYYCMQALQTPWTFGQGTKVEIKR
notes: mutant IgG1
B4: the EC50 in assay [7] was determined as 0.464 nM; in assay [13] it was 0.111 nM. This molecule yielded a half-inhibitory concentration (IC50) in assay [12] of 0.482 nM.

B5: anti-PD-1 antibody 21F12-2E1 (mutant IgG1 constant region of SEQ ID NO: 18) (antibody, V domains shown)
VH: B3 VH with G26E, T30Q
VL: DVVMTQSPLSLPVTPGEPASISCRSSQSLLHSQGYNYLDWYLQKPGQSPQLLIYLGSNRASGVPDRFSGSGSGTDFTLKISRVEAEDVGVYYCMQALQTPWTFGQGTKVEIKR
notes: mutant IgG1
With B5, the concentration giving a half-maximal response (EC50) in assay [14] was found to be 0.136 nM. The same molecule came in with an IC50 in [10] of 1.1 nM.

B6: anti-PD-1 antibody 21F12-1E11 (mutant IgG1 constant region of SEQ ID NO: 18) (antibody, V domains shown)
VH: B3 VH with I28F, T30Q
VL: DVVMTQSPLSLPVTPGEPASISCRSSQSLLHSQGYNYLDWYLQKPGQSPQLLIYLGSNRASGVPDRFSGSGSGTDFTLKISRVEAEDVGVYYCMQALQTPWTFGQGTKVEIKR
notes: mutant IgG1
As to B6, the EC50 in [13] stood at 0.0914 nM; in [14], 0.0936 nM. The concentration for half-maximal inhibition (IC50) in [10] is 0.653 nM.

B7: anti-PD-1 antibody 21F12-1C4 (mutant IgG1 constant region of SEQ ID NO: 18) (antibody, V domains shown)
VH: B3 VH with G26D
VL: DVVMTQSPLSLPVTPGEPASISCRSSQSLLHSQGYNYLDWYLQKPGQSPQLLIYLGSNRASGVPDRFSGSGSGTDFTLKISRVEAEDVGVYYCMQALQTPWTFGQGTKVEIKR
notes: mutant IgG1
As for B7, the midpoint of the response in assay [7], the EC50, lay at 0.479 nM. For the same molecule, in assay [11], the concentration for half-maximal inhibition (IC50) stood at 0.558 nM.

B8: anti-PD-1 antibody 21F12-1B12 (mutant IgG1 constant region of SEQ ID NO: 18) (antibody, V domains shown)
VH: B3 VH with I28P, T30Q
VL: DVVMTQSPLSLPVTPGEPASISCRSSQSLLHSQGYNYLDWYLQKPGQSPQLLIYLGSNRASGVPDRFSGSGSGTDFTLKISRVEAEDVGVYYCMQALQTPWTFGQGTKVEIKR
notes: mutant IgG1
For B8, the half-maximal effective concentration (EC50) in assay [7] stood at 0.257 nM; in assay [15], 0.0936 nM; in [14] it was 0.102 nM. Besides, the IC50 in assay [10] stood at 0.623 nM; in assay [16], 0.725 nM.

B9: anti-PD-1 antibody 21F12-3G1 (mutant IgG1 constant region of SEQ ID NO: 18) (antibody, V domains shown)
VH: B3 VH with S102N
VL: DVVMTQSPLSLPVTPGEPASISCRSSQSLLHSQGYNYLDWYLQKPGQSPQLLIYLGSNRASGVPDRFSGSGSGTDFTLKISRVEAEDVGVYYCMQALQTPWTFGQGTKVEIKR
notes: mutant IgG1
As for B9, the concentration for a half-maximal effect (EC50) is 0.334 nM in [7] and 0.108 nM in assay [13]. Further, the IC50 in assay [9] is 0.699 nM.

B10: anti-PD-1 antibody 21F12-2H7 (mutant IgG1 constant region of SEQ ID NO: 18) (antibody, V domains shown)
VH: B3 VH with G26Q, T30Q
VL: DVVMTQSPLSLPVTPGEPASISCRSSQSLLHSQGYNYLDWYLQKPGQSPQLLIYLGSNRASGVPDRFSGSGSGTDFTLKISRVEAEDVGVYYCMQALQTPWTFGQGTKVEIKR
notes: mutant IgG1
Take B10: the 50% effective concentration (EC50) in assay [14] amounted to 0.101 nM. The molecule also yielded a concentration for half-maximal inhibition (IC50) in [10] of 1.15 nM.

B11: IgG Control (antibody, V domains shown)
VH: QVQLQESGGGVVRPGGSLRLSCAASGFTFDDYGMSWVRQAPGKGLEWVSGINWSGGSTYYADSVKGRSTISRDNSKNTLYLQMNSLRAEDTAVYYCATGGYWGQGTLVTVSS
VL: not shown
notes: also called human IgG control
Consider B11, for which the binding result in [17] and in assay [18] was “no binding (tested: about 2 nM)” throughout. This molecule also displayed an IC50 in assay [19] of 3.77 nM.
